Measurements: US20150368642A1, “LNA OLIGONUCLEOTIDE CARBOHYDRATE CONJUGATES” (HOFFMANN-LA ROCHE INC., priority 2013, published 2015)
Strand notation (5' to 3'): a small letter for the sugar, then the base; units joined by * are phosphorothioate-linked, units joined directly phosphodiester-linked; [ ] holds rarer units or linkages, { } end groups; capitals alone tell only the bases. l = locked nucleic acid (LNA); [5mC] = 5-methylcytosine; d = 2'-deoxy (DNA)

Experiments:
HBV [1] = assay: HBV mouse hydrodynamic tailvein injection model, HBV DNA in liver by qPCR; assay type: in vivo, Balb/C mouse; conditions: Balb/C mice, single injection 24 hours before hydrodynamic injection; SEQ ID 55 2 and 10 mg/kg, SEQ ID 56 2.7 and 13.5 mg/kg
Source text: An LNA oligomer can be assessed for antiviral effect in vivo in a mouse strain, such as BALB/c or C57B/6, where HBV replication can be established by hydrodynamic tail vein injection of a plasmid, such as pAAV/HBV1.3, expressing a partially repeated HBV pregenomic RNA (J Virol. 1995 October; 69(10):6158-69) or pAAV2/HBV1.3, a derivative thereof (WuxiAppTech, Wuxi, China). The injection of the plasmid in a high volume of saline, equal to 8-12% of the body mass of the mouse, will result in the accumulation and expression of the viral pregenomic RNA in the liver, subsequently leading to the establishment of an acute HBV infection. Treatment of the animals with an LNA oligomer can be initiated 1 or more days before the injection of the plasmid or 1 day after the injection of the plasmid. Delivery of the LNA oligomer in saline can be done by intravenous or subcutaneous injection.
An in vivo experiment was performed on SEQ ID 55 and SEQ ID 56, the latter being a GalNAC conjugate of the former (conj1a). The LNA compounds were tested for efficacy against HBV in the mouse hydrodynamic tailvein injection model using the Balb/C mouse strain. LNA compounds were be tested at equimolar doses; 2 and 10 mg/kg, single injection (SEQ ID 55) and at 2.7 and 13.5 mg/kg, single injection (SEQ ID 56). The LNA anti-HBV compounds were compared to saline and to entecavir, an inhibitor of the HBV reverse transcriptase. Entecavir was dosed p.o. daily at 0.1 mg/kg. Where applicable, the animals were treated with the LNA compound 24 hours before the hydrodynamic injection. Entecavir was given in daily doses as described starting 24 hours after the hydrodynamic injection. […] All the animals were monitored on a daily basis for body weight changes and clinical signs for the duration of the in vivo study. […] All the blood samples were collected in tubes containing heparin sodium The portion of the left lobe of each liver was used to determine the level of HBV DNA replication by qPCR, as copies per unit weight of liver in which the quantity of total HBV DNA level is subtracted by the quantity of pAAV2/HBV DNA level. […]

HBV [2] = conditions: WO2011/47312; cited from earlier work
[3] = In vitro cleavage in kidney homogenate; assay type: in vitro ADME, NMRI mice; conditions: 200 μg/g tissue, 24 hours at 37°
Protocol: (§1) Liver, kidney and serum (see table below) were spiked with oligonucleotide SEQ ID NO 21 to concentrations of 200 μg/g tissue. Liver and kidney samples collected from NMRI mice were homogenized in a homogenisation buffer (0.5% Igepal CA-630, 25 mM Tris pH 8.0, 100 mM NaCl, pH 8.0 (adjusted with 1 N NaOH). The homogenates were incubated for 24 hours at 37° and thereafter the homogenates were extracted with phenol-chloroform. The content of cleaved and non cleaved oligonucleotide in the extract from liver and kidney and from the serum were determined against a standard using the above HPLC method.

[4] = In vitro cleavage in liver homogenate; assay type: in vitro ADME, NMRI mice; conditions: 200 μg/g tissue, 24 hours at 37°
Protocol: as §1

[5] = In vitro cleavage in serum; assay type: in vitro ADME; conditions: 200 μg/g
Protocol: as §1

Substance	effect on replication of HBV / HBV DNA level in the liver (HBV [1])	effectiveness against HBV as highlighted in the art (HBV [2])	% cleaved after 24 hrs kidney homogenate [3] [%]	% cleaved after 24 hrs liver homogenate [4] [%]	% cleaved after 24 hours in serum [5] [%]
SEQ ID NO 55: 5′-GsAsGsGscsastsasgscsasgs^mCsAsGsG-3′; HBV LNA gapmer disclosed in WO2011/47312 (lG*lA*lG*lG*dC*dA*dT*dA*dG*dC*dA*dG*l[5mC]*lA*lG*lG) [reference compound]	little effect on the replication of HBV in the liver	particularly effective against HBV	–	–	–
21 (TCAGCATTGGTATTCA; LNA gapmer conjugate, pattern not given here) [compound 21]	–	–	95	83	0
